Measurements as given in paper PMC11134608, “UBR5 forms ligand-dependent complexes on chromatin to regulate nuclear hormone receptor stability” (Molecular cell, 2023).
Primed or numbered codes have the meaning given here. No end group written: not given here. fluorescein″ = fluorescein (FAM) label on the N-terminus (fluorescent label)

B5: RARA/RXRA heterodimer (ligand-binding domains) (complex)
chain 1: SESYTLTPEVGELIEKVRKAHQETFPALCQLGKYTTNNSSEQRVSLDIDLWDKFSELSTKCIIKTVEFAKQLPGFTTLTIADQITLLKAACLDILILRICTRYTPEQDTMTFSDGLTLNRTQMHNAGFGPLTDLVFAFANQLLPLEMDDAETGLLSAICLICGDRQDLEQPDRVDMLQEPLLEALKVYVRKRRPSRPHMFPKMLMKITDLRSISAKGAERVITLKMEIPGSMPPLIQEMLENSEGLD
chain 2: SSANEDMPVERILEAELAVEPKTETYVEANMGLNPSSPNDPVTNICQAADKQLFTLVEWAKRIPHFSELPLDDQVILLRAGWNELLIASFSHRSIAVKDGILLATGLHVHRNSAHSAGVGAIFDRVLTELVSKMRDMQMDKTELGCLRAIVLFNPDSKGLSNPAEVEALREKVYASLEAYCKHKYPEQPGRFAKLLLRLPALRSIGLKCLEHLFFFKLIGDTPIDTFLMEMLEAPHQMT
notes: LBD constructs are stated for the negative stain EM; also called RARA/RXRA^LBD; RARA/RXRA LBD heterodimer; source: E. coli BL21-CodonPlus(DE3)-RIL, purified (HisTrap, SEC); not shown: His6, N-terminal, kept

What was measured:
[1] = target: T1, Full-length human FLAG-UBR5 (human, UniProt O95071 1-2799); test: pull-down; FLAG-UBR5 (15 pmol) immobilised on FLAG M2 beads, 150 pmol nuclear receptor protein added with 50 μM agonist ligand (ATRA, 9-cis RA, both, estradiol or calcitriol); 25 mM HEPES pH 7.4, 125 mM NaCl, 0.05% TWEEN-20; 4°C; eluted with 3xFLAG peptide, western blot; settings: both partners purified
T1 construct: UBR5 (ubiquitin protein ligase E3 component n-recognin 5), human, full length; Tetramer by SEC-MALS and cryo-EM; also called ubiquitin protein ligase E3 component n-recognin 5; UBR5 tetramer, WT; source: HEK293F (Expi293 system), transient expression, purified (FLAG M2, Mono Q, Superose 6); not shown: FLAG, N-terminal, kept
T1 sequence (O95071 whole entry): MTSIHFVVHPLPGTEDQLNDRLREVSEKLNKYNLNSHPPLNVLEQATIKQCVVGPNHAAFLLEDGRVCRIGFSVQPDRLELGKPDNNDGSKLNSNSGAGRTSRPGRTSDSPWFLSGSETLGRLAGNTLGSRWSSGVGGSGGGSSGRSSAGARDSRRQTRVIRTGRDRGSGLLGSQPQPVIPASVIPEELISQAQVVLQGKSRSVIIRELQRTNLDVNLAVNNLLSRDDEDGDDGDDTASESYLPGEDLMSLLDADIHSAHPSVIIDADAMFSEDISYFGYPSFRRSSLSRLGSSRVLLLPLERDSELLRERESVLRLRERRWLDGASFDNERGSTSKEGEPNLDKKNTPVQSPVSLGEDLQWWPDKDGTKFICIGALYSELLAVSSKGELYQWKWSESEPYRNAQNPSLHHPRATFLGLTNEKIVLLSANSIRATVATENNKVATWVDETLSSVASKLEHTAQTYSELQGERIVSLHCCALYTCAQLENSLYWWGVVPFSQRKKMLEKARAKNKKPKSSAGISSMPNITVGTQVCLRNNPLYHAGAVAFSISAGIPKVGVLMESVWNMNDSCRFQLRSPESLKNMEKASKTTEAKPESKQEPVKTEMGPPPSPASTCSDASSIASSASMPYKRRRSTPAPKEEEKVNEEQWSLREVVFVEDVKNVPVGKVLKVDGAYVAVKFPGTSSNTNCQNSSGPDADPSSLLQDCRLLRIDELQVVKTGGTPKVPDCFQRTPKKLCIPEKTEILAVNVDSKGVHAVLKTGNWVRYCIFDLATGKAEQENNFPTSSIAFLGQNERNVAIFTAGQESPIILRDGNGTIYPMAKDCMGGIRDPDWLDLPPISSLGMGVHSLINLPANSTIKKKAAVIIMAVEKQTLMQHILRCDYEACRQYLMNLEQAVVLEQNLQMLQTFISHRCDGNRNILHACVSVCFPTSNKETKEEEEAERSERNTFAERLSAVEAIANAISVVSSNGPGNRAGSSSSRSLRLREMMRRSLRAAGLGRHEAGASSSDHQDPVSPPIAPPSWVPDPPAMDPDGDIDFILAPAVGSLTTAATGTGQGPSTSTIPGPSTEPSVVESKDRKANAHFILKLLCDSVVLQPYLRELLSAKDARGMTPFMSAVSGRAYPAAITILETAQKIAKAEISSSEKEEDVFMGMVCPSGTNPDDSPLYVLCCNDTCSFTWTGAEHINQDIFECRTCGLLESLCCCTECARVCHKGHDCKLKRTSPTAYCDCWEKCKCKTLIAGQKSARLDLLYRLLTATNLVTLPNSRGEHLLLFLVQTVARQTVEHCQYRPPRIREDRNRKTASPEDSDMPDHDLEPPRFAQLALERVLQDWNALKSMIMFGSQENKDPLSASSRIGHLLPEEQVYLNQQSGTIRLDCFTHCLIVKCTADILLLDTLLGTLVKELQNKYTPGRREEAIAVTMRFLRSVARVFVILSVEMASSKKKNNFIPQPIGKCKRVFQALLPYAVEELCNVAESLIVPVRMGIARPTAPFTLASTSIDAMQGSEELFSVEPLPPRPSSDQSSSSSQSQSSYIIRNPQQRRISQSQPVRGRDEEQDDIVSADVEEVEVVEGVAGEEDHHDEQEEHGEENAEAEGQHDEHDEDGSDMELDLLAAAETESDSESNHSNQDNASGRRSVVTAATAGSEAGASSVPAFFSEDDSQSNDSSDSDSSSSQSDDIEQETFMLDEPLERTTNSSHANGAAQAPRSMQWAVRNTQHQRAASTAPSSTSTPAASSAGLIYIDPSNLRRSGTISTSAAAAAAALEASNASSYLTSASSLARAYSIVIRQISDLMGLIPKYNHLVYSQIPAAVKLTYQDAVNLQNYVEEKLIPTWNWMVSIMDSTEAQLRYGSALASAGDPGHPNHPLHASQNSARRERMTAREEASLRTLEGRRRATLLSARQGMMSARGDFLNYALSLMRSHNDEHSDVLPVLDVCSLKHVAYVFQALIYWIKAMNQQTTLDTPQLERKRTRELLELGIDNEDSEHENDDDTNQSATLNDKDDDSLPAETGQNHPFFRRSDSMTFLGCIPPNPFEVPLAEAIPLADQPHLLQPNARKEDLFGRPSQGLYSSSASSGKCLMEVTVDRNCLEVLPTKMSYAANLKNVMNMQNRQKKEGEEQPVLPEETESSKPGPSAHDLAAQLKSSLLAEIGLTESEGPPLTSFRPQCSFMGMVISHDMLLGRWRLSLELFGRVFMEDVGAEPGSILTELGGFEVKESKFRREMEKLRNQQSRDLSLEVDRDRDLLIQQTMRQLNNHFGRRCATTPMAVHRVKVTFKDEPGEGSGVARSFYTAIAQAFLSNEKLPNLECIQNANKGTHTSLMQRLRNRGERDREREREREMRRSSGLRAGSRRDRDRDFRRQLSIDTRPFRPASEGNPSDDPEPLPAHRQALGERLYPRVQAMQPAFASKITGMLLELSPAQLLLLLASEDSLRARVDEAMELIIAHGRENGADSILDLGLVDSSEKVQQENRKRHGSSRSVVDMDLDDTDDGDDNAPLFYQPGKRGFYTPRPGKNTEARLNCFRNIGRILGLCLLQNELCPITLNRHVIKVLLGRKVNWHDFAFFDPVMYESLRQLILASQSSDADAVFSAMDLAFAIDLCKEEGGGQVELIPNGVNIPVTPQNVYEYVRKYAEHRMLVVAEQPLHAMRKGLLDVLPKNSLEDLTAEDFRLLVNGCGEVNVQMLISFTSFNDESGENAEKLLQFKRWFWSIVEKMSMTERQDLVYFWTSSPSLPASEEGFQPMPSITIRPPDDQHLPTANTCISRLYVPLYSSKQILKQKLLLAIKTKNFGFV

[2] = target: B5; test: fluorescence polarisation; competitive reverse titration: tracer Flc-NCOA1 peptide 10 nM and RARA/RXRA 0.5 μM, unlabeled competitor peptides 0–85 μM; 20 mM HEPES pH 7.4, 110 mM NaCl, 500 μM TCEP, 1% glycerol, 0.1% pluronic acid, with or without 100 μM all-trans-retinoic acid; room temperature; settings: both partners purified

B1: His-tagged ER ligand-binding domain (aa301-552) (domain or fragment, UniProt P03372 301-552, looked up)
chain: SKKNSLALSLTADQMVSALLDAEPPILYSEYDPTRPFSEASMMGLLTNLADRELVHMINWAKRVPGFVDLTLHDQVHLLECAWLEILMIGLVWRSMEHPGKLLFAPNLLLDRNQGKCVEGMVEIFDMLLATSSRFRMMNLQGEEFVCLKSIILLNSGVYTFLSSTLKSLEEKDHIHRVLDKITDTLIHLMAKAGLTLQQQHQRLAQLLLILSHIRHMSNKGMEHLYSMKCKNVVPLYDLLLEMLDAHRLHAP
notes: also called estrogen receptor; source: E. coli BL21-CodonPlus(DE3)-RIL, purified (HisTrap, SEC); not shown: His6, N-terminal, kept
B1: binds [1].

B2: VDR aa118-427 (recombinant) (domain or fragment, UniProt P11473 118-427, looked up)
chain: DSLRPKLSEEQQRIIAILLDAHHKTYDPTYSDFCQFRPPVRVNDGGGSHPSRPNSRHTPSFSGDSSSSCSDHCITSSDMMDSSSFSNLDLSEEDSDDPSVTLELSQLSMLPHLADLVSYSIQKVIGFAKMIPGFRDLTSEDQIVLLKSSAIEVIMLRSNESFTMDDMSWTCGNQDYKYRVSDVTKAGHSLELIEPLIKFQVGLKKLNLHEEEHVLLMAICIVSPDRPGVQDAALIEAIQDRLSNTLQTYIRCRHPPPGSHLLYAKMIQKLADLRSLNEEHSKQYRCLSFQPECSMKLTPLVLEVFGNEIS
notes: also called vitamin D receptor; source: E. coli BL21-CodonPlus(DE3)-RIL, purified (HisTrap, SEC)
B2: binds [1].

B3: Fluorescein-labelled NCOA1 peptide residues 687–698 (Flc-ARHKILHRLLQEGS) (peptide)
peptide: {fluorescein″}-ARHKILHRLLQEGS
notes: NCOA1 LxxLL peptide, printed as residues 687-698; also called Fluorescein NCOA1 peptide aa687-698; source: synthetic peptide; bought: Peptides & Elephants
B3: binds [2].

B4: His-tagged RARA ligand-binding domain (aa175-421) (domain or fragment, UniProt P10276 175-421, looked up)
chain: SESYTLTPEVGELIEKVRKAHQETFPALCQLGKYTTNNSSEQRVSLDIDLWDKFSELSTKCIIKTVEFAKQLPGFTTLTIADQITLLKAACLDILILRICTRYTPEQDTMTFSDGLTLNRTQMHNAGFGPLTDLVFAFANQLLPLEMDDAETGLLSAICLICGDRQDLEQPDRVDMLQEPLLEALKVYVRKRRPSRPHMFPKMLMKITDLRSISAKGAERVITLKMEIPGSMPPLIQEMLENSEGLD
notes: no cleavage of the His6-Smt3 fusion is described, and the protein is called His-tagged in the pull-downs, so Smt3 was probably still on; also called His-RARA; RARA LBD; source: E. coli BL21-CodonPlus(DE3)-RIL, purified (HisTrap, SEC); not shown: His6, N-terminal, kept
B4: binds [1].

B5: binds [1].
